Laboratory results reported in the nanobody polyreactivity screen of Harvey et al. (2022).

Assay: yeast display, Sf9 membrane polyspecificity reagent, FACS + sequencing; frameworks hold sequencing errors
Method in brief: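 Sorting gates, low and high (top ~1%), were placed on anti-HA fluorescence to track expression and on streptavidin fluorescence to track reagent binding. A clone's polyreactivity label is taken from the gate it came out of. The reagent was 10% biotinylated, detergent-solubilized Sf9 membrane, applied for 1 hour at 4 °C to galactose-induced yeast display cells.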

Sequence | polyreactivity (PSR sort gate)
QVQLVESGGGLVQAGGSLRLTCAASGRIFWGNAMGWYRQAPGKERDLVAAITSCDGTNYADSVKGRFTISRDNAKNTVYLQMNSLKPEDTAVYYCAARKYYYLQYTPRYDYWGQGTQVTVSS | low polyreactivity
QVQLVESGGGLVQAGGSLRISCAPSGFTFGHYAMGWYRQAPGKERELVAAISYSGVRTYYADSVKGRFTISRDNAKNTVYLQMNSLKPEDTAVYYCNKYPAHYQTRRYDYWGQGTQVTVSS | high polyreactivity
QVQLVESGAGLVQAGGSLRLSCAASGRNFWYYAMGLYRQAPGKERELVAGITYGDGSTYYADSVKGRFTISRDNAKNTVYLQMNSLKPEDTAVYYCAVDLRSYWFRYGFDYWGQGTQVTVSS | low polyreactivity
QVQLVDSRGGLLQAGGSLRLSCAASGSIISRNAKGWYRQAPGKESELVAAITRSGGSTYYADSVKGRFTISRENAKNTVYLQRNRLKPEDTAVYYCATPIFSARRYTGYVKYDYWAQGTQVTVSS | high polyreactivity
QVQLVESGGGLVQAGGSLRLSCAASGRIFGGYTMGSYRQAPGKERELVAAITRSDGSTTYADSVKGRFTISRDNAKNTVSLQMNSMKPEDTAVYYCAAPRASGYYWGQCTQVTVSS | high polyreactivity
QVQLVESGGGVVQAGGSLRLICAASGSTFHSYVMGWYRQAPWKERELVAAITSRGGSTNYADSVKGRFTISRDNAKNTVYLQLNSQKPEDTAVYCCAADGYLGWSYCRYDYWGQGTQVTVSS | low polyreactivity
QVQLVESGGGLVQAGGSLRLSCAASGFTFRAYAMGWYRQAPGKERELVAAISRSGTSTYYADSVKGRFTISRDNAKYTVYLQMNSLKPEDTAVYYCAARLGPYHYATKMYYWGQGTQVTVSS | high polyreactivity
QVLLVESGGGLVQAGGSLRLSCAASGSTFYYYGMGWYRQAPGKEREFVAAISWGGGSTRYADSVKGRITISRDNAKNTVYLQMNSLKPEDTAVYYCAARYPHYDYYYWGQGTQVTVSS | high polyreactivity
QVQVVESGGGIVQAGGSLRLSCAASGFIFNGNAMGWYRQAPGKERELVAADSVKGRFTISRDNAKNSVYLQMNRLKPEDTAVYYCATEFWQASDYDYWGHGTQVTVSS | low polyreactivity
QVQLVESGGGLVQAGGSLRLSCAASGGIFYSNAMGWYRPAPGKERELVAAISRDGTITYYADSVKGRFTISRDNAKNTVYLQMNSLKPEDTAVYYCAADASIQSWYSIYDYWGQGTQVTVSS | high polyreactivity
QVQLVDSGGGLVQAGGSLSLSCAASGSTFTWYAMGWYIQAPGKERELVAASRWSGGNTYYADSVKGRFTISRDNAKHTVYLQMNSLKPEDPAVYYCAARLYTAADHYNDWGQGTQVTGSS | high polyreactivity
QVQLVESGGGLVQAGGSLRLSCAASGIIFRTYAMGWYRQAPGKEREFVAAISWSGGRTYYADSVKGRFTISRDNAKNTVYLQMNSLKPEDTAVYYCAALRSSQSKGDYWGQGTQVTVSS | high polyreactivity
QVQLVESGGCLVQEGGSLRLSCAASGRIININAMGWSRHAPGKEREMVAAITWRSGSTYYADSVKGRFTISRDNAKNTVYLQLNSLKPEDTAVYFCAADFSQTRRPIRFYYWGQGTQVTVSS | high polyreactivity
QVQLVESGGGLVQAGGSLRLRCAASGRTFSSYDKAWYRPAPGKERELVAAITKSGGSTYYADSVKGRFTLSRDKAKNTVYLQMNSLKPDDTAVYYCGYQYYYWGQGTQVTVSS | high polyreactivity
QVRLVETGGGLVQAGGSLRLSCAASGSIFLIYDMGWYRQAPGKEMELVAAISNSVGSTYADSVKGRFTMSRDNAKNTVYLQMNSLKPEDTAVYYCNADYGPIDGRGGYWGQGTQVTVSS | low polyreactivity
QVQLVESGGGLVQAGGSLRLSCAASGSIFRWYAMGWYRQAPGKERELVAAISTSGGNTYYADSVKGRFTISRDIAKITVYLQMKSLKPEDTAVYYCNALWYRSLSYRYDYWGQGTQVTVSS | high polyreactivity
QVQRVESGGGLVQAGGSLRLSSAASGSIFFDYAMRGYRQAPGNERELVAAISGSGGSRYYADSVKGRFTISRDNAKNTVYLQMNSLIPEDTAVYYCAAGYKYFRIRYDYWGQGTQVTVSS | high polyreactivity
QVQLVESGGGLVQAGGSLRLSCAASGRTFWPYAMGWYRQAPGKERELVARITASGGRTYYADSVKWRFTISRDNAKNTVYLQMNSLKPEDTAVYYCATSYSTRIWTWRAGDYWGQGSQVTVSS | high polyreactivity
QVQLVESGGGLVQAGGSLRLSCAASGRIFLWYAMGWYRQAPGKERELVASITRSGVTTYYADSVKGRFTISRDNAKNTVYLQMKSLKPEDTAVYYCNKDFRGDAIKLDVNYWGQGTQVTVSS | low polyreactivity
QDQLVESGGGLVQAGGSLRLSCSASGSIFRDKAMGWYRQAPGKERELVAAISIVGSTSYADSVKGRFTISRDNAKNTVYLQMNSLKPEDTAVYYCAADTFYSYYDMDYWGQGTQVTVSS | low polyreactivity
QVQLVESGVGLVQAGGSLRLSCAASGFTFSYYAMGWYRKAPGKERELVAGITTGGGTNYADSVKGRFTISRDNAKNTVYLQMNSLKPEDPAVYYCNAVGAHWVSYSSPVRFDYWGQGTQVTVSS | low polyreactivity
QVQLVESGGGLVQAGGSLRLSCAASGNIFSDNAMGWYRQAPGKERELVATITSSGVSTYYADSVKGRFTISRDNAKNTVYLQMNSLKPEDTAVYYGAVQGFRYHSREYDYWGQGTQVTVSS | low polyreactivity

Sequence | polyreactivity (PSR sort gate)
QVQLVESGGGLVQAGGSLRLSCAASGSILYYNAMGWYRQAPGKERELVAGIRSSGGSTYYADSVKGRFTISRDTAKNTVYLQMNSLKPEDTAVYYCAKRTYWRRGWGFDYWGQGTQVTVSS | high polyreactivity
QVQLVESGGGLVQAGGSLRLSCAASGLIFAGNDMGWYRQAPGKERELVARITNGGGSTYYADSVKGRFTISRDNAKNTVYLQMNSLKPEDTAVYYCNAGRSSGYSYDSWGPGTQVTVSS | low polyreactivity
QVQLEESGGGLVQAGGSLRLSCAASGSIFSAYFMVWYRQAPGKERELVAAINRGGNTYYADSVKGRFTISRDNANITVYLQMNSLKPEDTAVYYCNAQWYYLRYRYDYWGQGTQVTVSS | high polyreactivity
QVQHVESVGGIVQAGGSLRLICAASGFIFVGYAMGWYRQAPGKERELVAAISTSGGRTYYADSVKGRFTISRDNAKNTVYLQLNSLKPEDTAVYYCAAKRPGCIQYSYYYWGQGTQVTVSS | high polyreactivity
QVQLVESGGGLVQAGGSLRLSCAASGRILPFNAMGWHRQAPGKERELVDAIRWRGSSTYYADSVKGRFTISRDNAKNTVYLQMNSLKPEDTAVYYCAAPSSVRGKVISADYGYWGQGTQVTVSS | high polyreactivity
QVQLVESGGGLVQAGGSLRLSCAASGYTFRSYTMGWYRQAPGKERELVAAITSRGTSTYYADSVKGRFTISRDNAKNTVYLQMNSLKPEDTAVYYCAAPIYNGYASWQVYYWGQGTQVTVSS | high polyreactivity
QVQLVESGGGLVQAGGSLRLSCAASGSIFATNAMGCYRQAPGKERELVAAISRSGASTYYADSVKGRFTISRDNAKHTVYLQMNRLKPEDTAVYYCNKVLYRDAYQSYGFDYWGQGTQVTVSS | high polyreactivity
QVQLVESGGGLVQAGGSLRLSCAASGRIFDPYAMGWYRQAPGKERELVAAINIGGGTNYADSVKGRFTISRDNAKNTVYLQMNSLKPEDTAVYYCAAPVPAYQFYYRLKSFGRRYDHWGQGTQVTVSS | low polyreactivity
QVQLVESGGGLVQAGGSLRLSCAASGRIFYSYARGWYRQAPGKERELVAAIDESDGSTYYADSVKGRFTISRDNAKNTVYLQMNSLKPEDTAVYYCAADSLLVLFDYWGQGTQVTVSS | low polyreactivity
QVQLVESGGGLVQAGGSLRLSCAASGFILDYNAMGWYRQAPGKERELVATITGRGDRTYYADSVKGRFTISRDNAKNTVYLQMNSLKPEDTAVYYCAAAYLIYSDYGPAMDYWGQGTQVTVSS | low polyreactivity
QVQLVESGGGLVQAGGSLRLSCAASGSIFAFYAMGWYRQAPGKERELVAVISVSDGSTYYADSVKGRFTISRDNAKNTVYLQMKSLKAEDTAVYYCAATPRGSYGYYYWGQGTQVTVSS | low polyreactivity
QDQLVESGGGLVQAGGSLRLSCAASGSTLRGYAMGWYRQAPGKEREFVASITSSGSRTYADSVKGRFTISRDNAKNTVYLQMNSLKPEDTAVYYCAANRWPLKGYTSRYWGYWYNYWGQGTQVTVSS | high polyreactivity
QVQLVESGGGLVQAGGSLRLSCAASGRTFLQYGMGWYRQAPGKERELVAAITTSGGDTYYADSVKGRFTISRDNAKNTVYLQMNSQKPEDTAVYYCNAEPRYGTYDYWGQGTQVTVSA | low polyreactivity
QVQLVESGGGLVQAGGSLRLSCAASGSIFGYYTMGWYRQAPGKERELVATITSGGSTYYADSVKGRFTISRDNAKNTVYLQMNSLKPEDTAVYYCNADWYWRVYWGQGTQVTVSS | high polyreactivity
QDQLVESGGGLVQAGGSLSLSCAASGSTFLTNAMGWYRQAPGKERELVAAISRRGGNTYYADSVKGRFTISRDNAKNTVYLQMNSMNPEDTAVYYCNAVTPTTLGDYWGQGTQVTVSS | high polyreactivity
QVQLVESGGGLVQAGGSLRLSCAASGITFARYAMGWYRQAPGKERELVAAISQSGGSTYYADSVKGRFTISRDNAKNTVYLQMNSLKPEDTAVYYCNAYYVNYVSNYEYWGQGTQVTVSS | high polyreactivity
QVQLVETGGGLVQAGGSLRLSCAASGRIFSVYAMGWYRQAPGKERDLVAGITSSGGSTYYADSVKGRFTISRDNAKNTVYLQMISLKPEDTAGYYCATRQVSRLYPYRYNYWGQGTQVTVSS | high polyreactivity
QVQLVESGGGLVQAGGSLRLSCAASGFIFDTYALGWYRQAPGKERELVAVMSSSGGRTYYADSVKGRFTISRDNAKNTVYLQMNSLKPEDNAVYYCAARWYSGYGRFDYWGQGTQVTVSS | high polyreactivity
QVQLVETGGGLVQAGGSLRLSCAASGRTFAKYAMGWYRQAPGKERDLVASISGRGTNTYYADSVKGRFTISRDNAKNTVYLQMNSLKPEDTAVYYCAATYVYPYRDSHYFYWGQGTQVTVSS | high polyreactivity
QVQLVESGGGLVQAGGSLRLSCAASGNTFYWYVMGWYRQAPGKERELVARITSSGGSTNYADSVKGRFTISRDNAKNTVYLQMNSLKPEDTAVYYCAADDIYLYGGGTDYYFWGQGTQVTVSS | low polyreactivity
QVQLVESGGGLVQAGGSLRLSCAASGLIIAHYAMGWYRQAPVKERELVAAITSGSSTYYADSVKGRFTISRDNAKNNVYLQMNSLKPEDTAVYYCAAKETHSAYRSSGNYWGQGTQVTVSS | low polyreactivity
